In patent US20210347914A1:

What was measured:
[1] = biological target: GFAP purified from human brain (human) (UniProt P14136); experiment: chemiluminescent sandwich ELISA; GFAP-2 capture, HRP-GFAP-6 detection; GFAP standard 10 pg/ml
[2] = biological target: GFAP purified from human brain (human) (UniProt P14136); experiment: chemiluminescent sandwich ELISA; GFAP-2 capture, HRP-GFAP-6 detection; GFAP standard 20 pg/ml
[3] = biological target: GFAP purified from human brain (human) (UniProt P14136); experiment: chemiluminescent sandwich ELISA; GFAP-2 capture, HRP-GFAP-6 detection; GFAP standard 40 pg/ml
[4] = biological target: GFAP purified from human brain (human) (UniProt P14136); experiment: chemiluminescent sandwich ELISA; GFAP-2 capture, HRP-GFAP-6 detection; GFAP standard 80 pg/ml
[5] = biological target: GFAP purified from human brain (human) (UniProt P14136); experiment: chemiluminescent sandwich ELISA; GFAP-2 capture, HRP-GFAP-6 detection; GFAP standard 160 pg/ml
[6] = biological target: GFAP purified from human brain (human) (UniProt P14136); experiment: chemiluminescent sandwich ELISA; GFAP-2 capture, HRP-GFAP-6 detection; GFAP standard 320 pg/ml
[7] = biological target: GFAP purified from human brain (human) (UniProt P14136); experiment: chemiluminescent sandwich ELISA; GFAP-2 capture, HRP-GFAP-6 detection; GFAP standard 640 pg/ml

GFAP purified from human brain (human), sequence (P14136 whole entry): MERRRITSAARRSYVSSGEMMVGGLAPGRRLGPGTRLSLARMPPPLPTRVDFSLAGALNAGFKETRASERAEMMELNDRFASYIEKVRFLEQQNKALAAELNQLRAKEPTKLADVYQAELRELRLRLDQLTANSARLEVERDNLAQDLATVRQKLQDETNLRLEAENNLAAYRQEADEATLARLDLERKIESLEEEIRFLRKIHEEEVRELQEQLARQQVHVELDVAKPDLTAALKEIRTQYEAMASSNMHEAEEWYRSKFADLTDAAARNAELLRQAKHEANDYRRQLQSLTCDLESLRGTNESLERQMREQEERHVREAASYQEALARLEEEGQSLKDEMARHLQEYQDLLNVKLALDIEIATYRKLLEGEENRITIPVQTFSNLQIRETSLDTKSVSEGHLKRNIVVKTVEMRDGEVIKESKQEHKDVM

B1: GFAP-6 (antibody, V domains shown)
VH: EVQLQQSGAEFVKPGASVKLSCTASGFNIKDTDMHWVRQRPEQGLESIGLIDPAIGNTKYDPKFQGKATITADTSSNAAYLQLSSLTSEDTAVYYCARSDRYLAWFAYWGQGTLVTVSA
VL: DIVMTQSPATLSVTPGDRVSLSCRASQSISDFLHWYQQKSHGSPRLLIKYSSQSISGIPSRFSGSGSGSDFTLSINSVEPEDVGVYYCQNGHTFPYTFGGGTKLEIK
B1 showed a Relative Light Unit (rlu) [1] of 3640 rlu, a Relative Light Unit (rlu) [2] of 7420 rlu and a Relative Light Unit (rlu) [3] of 22700 rlu. For the same binder, the Relative Light Unit (rlu) [4] was 72700 rlu, the Relative Light Unit (rlu) [5] was 208000 rlu and the Relative Light Unit (rlu) [6] was 487000 rlu. For the same binder, the Relative Light Unit (rlu) [7] was 1.12e+06 rlu.
